± gives the half width of the 95% confidence interval.
Experiments:
[1] = folding stability dG unfold (combined trypsin and chymotrypsin); higher = more stable
In short: (§1)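 Only designs with AlphaFold2 dimer inter-PAE above 15 were retained; each was a mini-protein under 80 residues with no cysteine, in a PA-tagged cDNA display construct. After digestion with trypsin and chymotrypsin and sequencing, K50 was inferred by Bayesian fitting of counts, and unfolding free energy was derived per protease or combined against a sequence-predicted unfolded-state K50 and a shared folded-state K50.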

[2] = folding stability dG unfold from chymotrypsin proteolysis; higher = more stable
In short: as §1

[3] = folding stability dG unfold from trypsin proteolysis; higher = more stable
In short: as §1

Sequence	folding stability dG unfold [1] [kcal/mol]	folding stability dG unfold [2] [kcal/mol]	folding stability dG unfold [3] [kcal/mol]
SLKPGEWVMFMFTIPITIRITKDDLPPGWKIKEVTIRIYVMFLFRVDPDGNFKILSFNIMIEIEVKYEPDSA [r9_747_TrROS]	4.98 ± 0.11	5.1 ± 0.081	4.52 ± 0.13
SLRDIAKEIAEKAGMDPEDVEINVETEPDPKNGKPRLRITVSIEHPNRKYMIKIDFQDGEIEEIMPLEDISA [r9_1219_TrROS]	1.74 ± 0.3	1.97 ± 0.089	1.66 ± 0.099
SLSPALEGPEALAALAAADPVPPLPVLTVKNSTGDPEKALEEVLKEHPELKPELIVEVEVGEGTLTITVLSA [r9_723_JUSTAS]	0.48 ± 0.19	0.573 ± 0.095	0.442 ± 0.13
SLTAEEAAANPELAARLLALPPVPPFPVELLFVNPETRAVLPAKATVYQFPNTWLVLFPENGAALPVPGGSA [r9_548_TrMRF]	1.1 ± 0.099	1.26 ± 0.074	0.71 ± 0.14
SLTPEQVEKIAKTIADVFRKLGYELKVKTKVFEVNNVPVAVVEFELIDKDGKPRRFRFVIHPDGTIEIFPSA [r9_1027_TrMRF]	> 6	6.18 ± 0.092	4.15 ± 0.07
SMATVLSVSENPENPDTLSFEVELPDSPMSVTVPKDPKTGKYTMTVETPEATTTRDFTSLEDALAYIERASA [r9_366_JUSTAS]	0.795 ± 0.034	0.758 ± 0.08	0.787 ± 0.021
SMDFKENQSFYITEITDDEVTFIFNNKPYKFPKEFINSKDTIITIYNGKIKEIKKPKPLKLHPEEIKKLSSA [r9_842_TrMRF]	1.04 ± 0.36	1.43 ± 0.12	0.519 ± 0.17
SMDIKVTKLPDGSYRITASVPPDTKPITIPVPKTGKPVVITTEPGKLTVTTDDEEVVKEVAEAIKKGELLSA [r9_515_JUSTAS]	1.02 ± 0.15	0.929 ± 0.087	0.951 ± 0.066
SMEEEEEEPEPAPVVVITVEPGETVEQVRAAAREAAEKGMRIVITGLSEEEAKAIAEELGLDVEIEVVEPSA [r9_1207_TrROS_Hall]	2.69 ± 0.78	1.47 ± 0.16	3.01 ± 0.33
SMEEIAKEIAEKAGVNWENVEFKVEEKEDPETGEKYLIAHVVIKLPNEKYIAVIDLRDKKILEIWKLEDISA [r9_1219_TrMRF]	3.61 ± 0.11	3.73 ± 0.063	2.91 ± 0.11
SMEIDPGPGVIRLRFEAPLVDPEHPRLLTLRLEPVIEVSPDGTLRVREVRLVGFSPDGELLFERPFTLDLSA [r9_383_TrMRF]	2.16 ± 0.066	2.28 ± 0.06	1.865 ± 0.017
SMEISFTDPAEAEALLAEVKAKLKAELPPNTVVPITVRDAAGNPTTHPITITPEPPEVVYFTETGGTVLLSA [r9_596_JUSTAS]	1.76 ± 0.28	1.57 ± 0.051	1.94 ± 0.17
SMEIVFKGKNYYVPVKIDLDNPKITIETYPDKRNKVFKPLSKETAEKIAKAVEIEVAEKIAKAIAEGKPPSA [r9_368_TrMRF]	-0.246 ± 0.54	-0.5 ± 0.66	0.0537 ± 0.39
SMEKVKAKPAGEVTFVFDNEDPSLTPEQQVELVEKELEKLPELKIYEVEAEVDLETGKVTIKVKLLVEEVSA [r9_1001_TrMRF]	0.814 ± 0.22	1.26 ± 0.11	-0.41 ± 0.28
SMEMTPEERLLALLREARKKHPGKKIVLSVEEIEELLGVDLSAEEIAKLLKEELGIDEVEIVEEEEPEEESA [r9_738_TrROS_Hall]	3.01 ± 0.069	3.375 ± 0.031	2.11 ± 0.056
SMEPGELRLRAKVPLRIVNPDGEEIADIEIEVRSIEELEEAIAEAARELAERLGRPDAPVVIDDIEVEDESA [r9_376_TrMRF]	0.482 ± 0.23	0.643 ± 0.14	0.239 ± 0.19
SMGMTPEEYILELVREALAADPDAAVTIDHDDIVRNTPNPISKEEIEKLAKEKTGVEDLTVTETPPDVPPSA [r9_738_JUSTAS]	0.265 ± 0.061	0.252 ± 0.054	0.18 ± 0.023
SMIKVGFNVTGLPEEAEAKAEELARELAEETGARVAGVELLEAVPHPDGGPETFNVLVTLEVPNPEAIEKSA [r9_302_TrMRF]	1.72 ± 0.093	2.21 ± 0.051	0.542 ± 0.045

Sequence	folding stability dG unfold [1] [kcal/mol]	folding stability dG unfold [2] [kcal/mol]	folding stability dG unfold [3] [kcal/mol]
SMILDVPGEQLDEALAEIRAAVAAGAPPVTIRMKLSPEDLKKAKAAFEALGMTVTPLPEPGVWEFTVELRSA [r9_600_JUSTAS]	3.27 ± 0.065	3.366 ± 0.017	3.08 ± 0.043
SMITIPYNIQTDPSQAEKLAEEIAKEVEEKYGLKVVGVELVEWVPAPDGSESSVKVEIKIEAPDPKNILLSA [r9_302_JUSTAS]	0.705 ± 0.096	0.713 ± 0.089	0.614 ± 0.031
SMITSTTTTDPNSNTTTTTYTYPDTTYTVTRTLNPDNTVTVTVTATTPPGPTTPLSTVNLSPTDTLTLPVSA [r9_1172_JUSTAS]	1.36 ± 0.054	1.26 ± 0.068	1.34 ± 0.031
SMIVRVEGDKTTITLTLTTTTTLTDPTNPSLTTTVSKTVPRTLTLDPNDPAALAALIAALPPGAVPTIVGSA [r9_476_JUSTAS]	1.43 ± 0.095	1.75 ± 0.091	0.728 ± 0.04
SMKEPPKVTIEIEYDEETETVRVRITLEDGTEIEVEVEAENKEEALREAIREALKKIFPELTDEQIEKLLSA [r9_634_TrROS_Hall]	2.72 ± 0.29	1.58 ± 0.11	3.45 ± 0.24
SMKIEIIERNEDGEYVLVRITFEDGEEITIVAKTEEEAKEAAKEIAKELFPDVKIKKIEVVPLEDLPEELSA [r9_137_TrROS_Hall]	1 ± 0.31	0.251 ± 0.37	1.62 ± 0.14
SMKIEVEKLEDGTYVITIEDPGEDDIPVTYKAVVFVDPETGKVYVDRNIEDPNVPPELKELFENFIPGIESA [r9_715_TrMRF]	2.92 ± 0.056	3.097 ± 0.018	2.5 ± 0.094
SMKIKIEKVEDGYYKIKIYDKKTKKEYTIIVPKNMKPGQVELVNRNGKKITMTLEEIKKLLPPGAEVEIVSA [r9_250_TrROS_Hall]	2.21 ± 0.1	2.14 ± 0.051	2.01 ± 0.074
SMKIKIEPLPDGSYRLVAEVPEDAEETENLFPLTGKPIVVKREKNKLVIEFDNPEEVELFAEALKKNIPLSA [r9_515_TrMRF]	1.47 ± 0.12	1.54 ± 0.084	1.28 ± 0.032
SMKILNDPNIKKVIPVFLMLMSPEEFKKLAEKLANGIKKELEEKGFPIPKDIEIKIIPFKSPEELKKALKSA [r9_204_TrMRF]	1.93 ± 0.14	2.31 ± 0.11	1.29 ± 0.039
SMKINVVINITLPDGTTVTSTLNLTESEIEKTIKEKIPSSYKVEITKKDPVDPAKLPPGSSINVDLTVNLSA [r9_803_JUSTAS]	1.59 ± 0.22	1.69 ± 0.15	1.31 ± 0.079
SMKISSFTLAPGGEAVIELTFESGETRRVRLTGLTSKAEVEAEAKRLQEELEKGNPRPIKTVTVSPAPPASA [r9_1135_JUSTAS]	1 ± 0.094	0.768 ± 0.24	1.14 ± 0.064
SMKITIVNKNGEKKEIEVTAKDGKKYKITVFKDKELVIKVEETTPDGKKKPVKVIKAKSLEEALEALKKASA [r9_942_TrROS_Hall]	2.38 ± 0.32	2.83 ± 0.057	2.17 ± 0.14
SMKIVKIEIEKIEIYSDEEFAKKTGIKPEAIYKNGKKKKVIKIPVKITLYDEKKGEKKEFEAEITIVIDVSA [r9_382_TrMRF]	2.2 ± 0.38	2.61 ± 0.19	1.56 ± 0.15
SMKLKLYDPATGKWYELTYDPAKGTVTITYPDGKVITRPVKSIEVNPETGTITITFPDSTETFTVPESLISA [r9_325_JUSTAS]	3.79 ± 0.066	3.934 ± 0.031	3.42 ± 0.089
SMKLKPGQTAKIVEIKENYIYIEVNGKKYKISLEELKEKGYEIKIVNGKIVEIRPKPKKKLSEEELKKLKSA [r9_842_TrROS_Hall]	1.16 ± 0.15	1.04 ± 0.16	1.13 ± 0.077
SMKPGDKLLIRIRLPPVKVEREYFDKDGKLVKKETKEVKEVELVIELSPEELEKLRELLKELGFEVEILPSA [r9_167_TrROS_Hall]	2.5 ± 0.16	2.4 ± 0.055	2.83 ± 0.16
SMKPGDVKVIEIEVEYPWPPGDPEKAKEKVRDLVNSIMQEHGYDVDIPVEIEPRDGRYRVEVPIIIRPPNSA [r9_889_TrROS]	-0.409 ± 0.25	-0.771 ± 0.36	0.0547 ± 0.069

Reference: the supplement of paper PMC12764529
